Measured values: article doi:10.1101/2021.09.03.458554 (bioRxiv, 2021)

B1: GVATSLLW peptide (hGid4 residues 116-122) (peptide)
peptide: GVATSLLW
B2: FWLPANLW peptide (peptide)
peptide: FWLPANLW

What was measured:
hGid4 (Δ1-115) = biological target: T1, hGid4 (Δ1-115) (human, UniProt Q8IVV7 116-300); assay: fluorescence polarisation
T1 sequence: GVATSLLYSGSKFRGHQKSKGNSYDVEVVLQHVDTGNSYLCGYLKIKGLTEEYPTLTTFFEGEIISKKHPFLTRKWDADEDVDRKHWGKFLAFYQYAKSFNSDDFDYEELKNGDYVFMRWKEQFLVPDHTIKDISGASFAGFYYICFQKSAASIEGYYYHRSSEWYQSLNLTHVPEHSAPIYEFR

yGid10 (Δ1-64, Δ285-292) = biological target: T2, yGid10 (Δ1-64, Δ285-292) (S. cerevisiae, UniProt P53242 65-284); assay: crystal structure
T2 sequence: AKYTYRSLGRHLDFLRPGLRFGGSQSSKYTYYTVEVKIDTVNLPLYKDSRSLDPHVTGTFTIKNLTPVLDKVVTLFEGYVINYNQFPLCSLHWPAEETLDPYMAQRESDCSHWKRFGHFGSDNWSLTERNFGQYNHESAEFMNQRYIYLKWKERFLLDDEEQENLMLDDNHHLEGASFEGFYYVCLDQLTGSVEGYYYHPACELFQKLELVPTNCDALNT

| Binder | binding result (hGid4 (Δ1-115)) | binding result (yGid10 (Δ1-64, Δ285-292)) |
| --- | --- | --- |
| B1 | binds | – |
| B2 | – | binds |
